Assay results taken from US20020137918A1.
Blank lines part the entries; values can stand above or below the molecule they belong to.

Assays:
human κ-chain (human) [1] = assay: affinity chromatography, Y53F PpL coupled to agarose, human κ-chain eluted by rising KCl
human IgG (human) [2] = assay: competitive ELISA at pH 8.0, against the Kd of PpL (112 nM)
human κ-chain (human) [3] = assay: affinity chromatography, Y53F PpL coupled to agarose, human κ-chain eluted by falling pH
human κ-chain (human) [4] = assay: Kd at pH 8, method not stated; one Kd given for the mutation, ticked in PpL and Y64W PpL
human IgG (human) [5] = assay: competitive ELISA at pH 8.0, PpL on the plate
human IgG (human) [6] = assay: method not given
human κ-chain (human) [7] = assay: method not given
human κ-chain (human) [8] = assay: affinity chromatography, Y53F PpL coupled to agarose, human κ-chain eluted by rising pH
human κ-chain (human) [9] = assay: tryptophan fluorescence, complex against the sum of the spectra of the single proteins
human κ-chain (human) [10] = assay: affinity chromatography, Y64W PpL coupled to agarose, human κ-chain eluted by rising pH
human IgG (human) [11] = assay: competitive ELISA, PpL on the plate, human IgG
human κ-chain (human) [12] = assay: affinity chromatography, Y64W PpL coupled to agarose, human κ-chain eluted by falling pH
human κ-chain (human) [13] = assay: affinity chromatography, Y64W PpL coupled to agarose, human κ-chain eluted by rising KCl
human κ-chain (human) [14] = assay: stopped flow fluorescence, equilibrium Kd
human κ-chain (human) [15] = assay: stopped flow fluorescence
human κ-chain (human) [16] = assay: stopped flow fluorescence, encounter complex
human κ-chain (human) [17] = assay: Kd at pH 8, method not stated; mutation ticked in F39W PpL
human IgG (human) [18] = assay: competitive ELISA, Wt PpL immobilized, human IgG
human κ-chain (human) [19] = assay: isothermal titration calorimetry, 800 µM L57H PpL into 40 µM kappa light chain, 25 °C, pH 8.0
human κ-chain (human) [20] = assay: Kd at pH 8, method not stated; mutation ticked in Y64W PpL
human κ-chain (human) [21] = assay: affinity chromatography, PpL coupled to agarose, human κ-chain eluted by falling pH
human IgG (human) [22] = assay: competitive ELISA, human IgG
human κ-chain (human) [23] = assay: affinity chromatography, PpL coupled to agarose, human κ-chain eluted by rising KCl
human IgG (human) [24] = assay: competitive ELISA; told as 'previously determined for PpL'
human κ-chain (human) [25] = assay: affinity chromatography, PpL coupled to agarose, human κ-chain eluted by rising pH
human κ-chain (human) [26] = assay: tryptophan fluorescence, complex against the sum of the single proteins
human κ-chain (human) [27] = assay: Kd at pH 8, method not stated; mutation ticked in PpL
human κ-chain (human) [28] = assay: competitive fluorescence titration, PpL2Asn as competitor
human κ-chain (human) [29] = assay: fluorescence titration of F39W into 0.75 µM kappa chain, 18 °C, pH 8
human κ-chain (human) [30] = assay: Kd at pH 8, method not stated; one Kd given for the mutation, ticked in Y64W PpL and F39W PpL

elution condition, increase KCl (human κ-chain (human) [1]): 0.75 M
fold increase in Kd against PpL (human IgG (human) [2]): 25 fold
elution condition, decreased pH (human κ-chain (human) [3]): 3.2 pH
Kd (human κ-chain (human) [4]): 1700 nM
Kd (human IgG (human) [5]): 3200 nM
Kd (human IgG (human) [6]): 2000 nM
fold reduction in affinity against PpL (human κ-chain (human) [7]): 27 fold
elution condition, increased pH (human κ-chain (human) [8]): 9.6 pH
Molecule: Y53F PpL

quench in fluorescence emission of the complex (human κ-chain (human) [9]): 9%
elution condition, increased pH (human κ-chain (human) [10]): 10.1 pH
Kd (human IgG (human) [11]): 129 nM
elution condition, decreased pH (human κ-chain (human) [12]): 2.03 pH
elution condition, increase KCl (human κ-chain (human) [13]): 0.96 M
B1: Y64W PpL (protein)
chain: MNIKFAGKETPETPEEPKEEVTIKVNLIFADGKIQTAEFKGTFEEATAEAYRYADLLAKVNGEWTADLEDGGNHMNIKFAGK

Kd (human κ-chain (human) [4]): 6000 nM
Kd (human κ-chain (human) [14]): 5400 nM
fold of equilibrium Kd against Y64W PpL (human κ-chain (human) [15]): 30 fold
fold of pre-equilibrium Kd against Y64W PpL (human κ-chain (human) [15]): 2 fold
pre-equilibrium Kd (human κ-chain (human) [16]): 6800 nM
B2: L57H Y64W PpL (protein)
chain: MNIKFAGKETPETPEEPKEEVTIKVNLIFADGKIQTAEFKGTFEEATAEAYRYADLHAKVNGEWTADLEDGGNHMNIKFAGK

Kd (human κ-chain (human) [17]): 400 nM
B3: N76D F39W PpL (protein)
chain: MNIKFAGKETPETPEEPKEEVTIKVNLIFADGKIQTAEWKGTFEEATAEAYRYADLLAKVNGEYTADLEDGGNHMDIKFAGK

Kd (human κ-chain (human) [17]): 500 nM
B4: Y53H F39W PpL (protein)
chain: MNIKFAGKETPETPEEPKEEVTIKVNLIFADGKIQTAEWKGTFEEATAEAYRHADLLAKVNGEYTADLEDGGNHMNIKFAGK

Kd (human IgG (human) [18]): 4200 nM
Kd (human κ-chain (human) [4]): 6000 nM
Kd (human κ-chain (human) [19]): 5200 nM
B5: L57H PpL (protein)
chain: MNIKFAGKETPETPEEPKEEVTIKVNLIFADGKIQTAEFKGTFEEATAEAYRYADLHAKVNGEYTADLEDGGNHMNIKFAGK

Kd (human κ-chain (human) [4]): 1000 nM
B6: F39H Y64W PpL (protein)
chain: MNIKFAGKETPETPEEPKEEVTIKVNLIFADGKIQTAEHKGTFEEATAEAYRYADLLAKVNGEWTADLEDGGNHMNIKFAGK

Kd (human κ-chain (human) [20]): 2000 nM
B7: L57D Y64W PpL (protein)
chain: MNIKFAGKETPETPEEPKEEVTIKVNLIFADGKIQTAEFKGTFEEATAEAYRYADLDAKVNGEWTADLEDGGNHMNIKFAGK

elution condition, decreased pH (human κ-chain (human) [21]): 1.96 pH
Kd (human IgG (human) [22]): 160 nM
elution condition, increase KCl (human κ-chain (human) [23]): 0.95 M
Kd (human IgG (human) [24]): 112 nM
elution condition, increased pH (human κ-chain (human) [25]): 10.2 pH
B8: PpL (protein)
chain: MNIKFAGKETPETPEEPKEEVTIKVNLIFADGKIQTAEFKGTFEEATAEAYRYADLLAKVNGEYTADLEDGGNHMNIKFAGK

Kd (human κ-chain (human) [4]): 1000 nM
B9: F39H PpL (protein)
chain: MNIKFAGKETPETPEEPKEEVTIKVNLIFADGKIQTAEHKGTFEEATAEAYRYADLLAKVNGEYTADLEDGGNHMNIKFAGK

increase in fluorescence signal of the complex (human κ-chain (human) [26]): 10%
Kd (human κ-chain (human) [4]): 1700 nM
Kd (human IgG (human) [5]): 3320 nM
B10: Y53F Y64W PpL (protein)
chain: MNIKFAGKETPETPEEPKEEVTIKVNLIFADGKIQTAEFKGTFEEATAEAYRFADLLAKVNGEWTADLEDGGNHMNIKFAGK

Kd (human κ-chain (human) [27]): 160 nM
Kdapp in the presence of 5 µM PpL2Asn (human κ-chain (human) [28]): 310 nM
Kd (human κ-chain (human) [29]): 161 nM
B11: F39W PpL (protein)
chain: MNIKFAGKETPETPEEPKEEVTIKVNLIFADGKIQTAEWKGTFEEATAEAYRYADLLAKVNGEYTADLEDGGNHMNIKFAGK

Kd (human κ-chain (human) [30]): 300 nM
B12: Q35E F39W PpL (protein)
chain: MNIKFAGKETPETPEEPKEEVTIKVNLIFADGKIETAEWKGTFEEATAEAYRYADLLAKVNGEYTADLEDGGNHMNIKFAGK

Kd (human κ-chain (human) [30]): 300 nM
B13: Q35E Y64W PpL (protein)
chain: MNIKFAGKETPETPEEPKEEVTIKVNLIFADGKIETAEFKGTFEEATAEAYRYADLLAKVNGEWTADLEDGGNHMNIKFAGK
